Assay results published in the supplement of paper PMC10724198.
± gives the standard deviation of the averaged measurements.

The sequences below were run on Saccharomyces cerevisiae (assay: protein stability index of tFT-peptide fusion (C-terminal peptide) (PSI (0-1 scale)); higher = more stable (slower turnover)). Settings: genetic background: wild type; temperature: 30 C.
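Note: PSI is a weighted mean of sequencing reads over stability bins, variants kept only with over 10 reads, mCherry proximal and sfGFP distal, peptide attached via GGGS linker.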

Row | Sequence | protein stability index
1 | PPPPPPLSPPSP | 0.659 ± 0.012
2 | RVVCGGMGVRRG | 0.63 ± 0.077
3 | GGCFGGVGVGSG | 0.7122 ± 0.0045
4 | VFRFRARRYNES | 0.655 ± 0.079
5 | PLPLLSLPRFPL | 0.753 ± 0.1
6 | RSHPSPPPVILY | 0.686 ± 0.045
7 | CSLFIRCAPFCG | 0.705 ± 0.017
8 | TELSLHFAGYAE | 0.74 ± 0.031
9 | PPPPPLPPPTPP | 0.568 ± 0.024
10 | RHYGRSLRLIKT | 0.59 ± 0.011
11 | VVCLGLPIQAGV | 0.526 ± 0.017
12 | SLVNDLFFLFFY | 0.523 ± 0.069
13 | LSFGPISGTPFR | 0.661 ± 0.048
14 | APPRLTTLSMNL | 0.696 ± 0.0073
15 | GGRKKEDEEEEA | 0.651 ± 0.078
16 | FLLSLYSVPFVL | 0.63984 ± 0.00021
17 | KQRKSESGSNTV | 0.686 ± 0.057
18 | CTLWCIPGCNMR | 0.666 ± 0.066
19 | FEVRLRCLGYSG | 0.718 ± 0.015
20 | GLGVWDLRLGWG | 0.701 ± 0.011
21 | SLRNSFPPLSSP | 0.651 ± 0.07
22 | HCFCFSVSSFFG | 0.667 ± 0.026
23 | SRLSPSPLPPFL | 0.667 ± 0.023
24 | VFLILKPRDLTE | 0.667 ± 0.01
25 | PYFHRRMSLESF | 0.703 ± 0.013

Row | Sequence | protein stability index
26 | KGGGMWRCCVWR | 0.685 ± 0.0089
27 | NGSLRVVSGGFC | 0.63 ± 0.048
28 | GGRGYRIKRKSV | 0.806 ± 0.12
29 | MSGVWLWVGGGG | 0.73 ± 0.078
30 | PLPRFLTLTLSQ | 0.652 ± 0.023
31 | GLGTAFGAADTV | 0.693 ± 0.012
32 | FFSSALILSLRL | 0.533 ± 0.023
33 | NKKKNKKKNKKK | 0.676 ± 0.032
34 | GKRLKKTRTKKS | 0.704 ± 0.059
35 | EVWSYCPAFFVD | 0.736 ± 0.016
36 | VSGSTGVWCRWG | 0.668 ± 0.048
37 | IVEERLFWKMWE | 0.659 ± 0.015
38 | CIPCLLAYPETC | 0.655 ± 0.14
39 | CSRTIGGFLWDQ | 0.6994 ± 0.0054
40 | TTSSRDYIELLL | 0.729 ± 0.016
41 | SSRLALVLLPPG | 0.649 ± 0.042
42 | WCLDCVGFSLPE | 0.687 ± 0.054
43 | VVIFPPTFISGG | 0.643 ± 0.1
44 | PLLSSPAHPLPP | 0.687 ± 0.053
45 | ASRPAPPAPAFL | 0.675 ± 0.005
46 | APSVSKNSEVRK | 0.681 ± 0.019
47 | GGMEGRVACSAQ | 0.74 ± 0.057
48 | VPRTPPTTSWFP | 0.682 ± 0.026
49 | RWGPGAVWGRGR | 0.707 ± 0.068
50 | VFSFFNFCFCFY | 0.615 ± 0.06

Row | Sequence | protein stability index
51 | GGGEKVMVVGHG | 0.709 ± 0.013
52 | LPPLPLPPAPSA | 0.621 ± 0.042
53 | YRQAAIKNIKRK | 0.683 ± 0.014
54 | CGCGCPSRVLVS | 0.643 ± 0.061
55 | LPSGVPPPPPLP | 0.695 ± 0.063
56 | IGVRSTRFCAIR | 0.655 ± 0.0093
57 | VIPYLISSLYAV | 0.691 ± 0.13
58 | ITHLFRSSIYSR | 0.683 ± 0.12
59 | NRGRIRARVNEA | 0.708 ± 0.07
60 | APSDRRRTPTPT | 0.69 ± 0.013
61 | GRGGVLEEAVGG | 0.654 ± 0.077
62 | CSLVWPGSMSVD | 0.738 ± 0.033
63 | LFGAGGGGVEVG | 0.672 ± 0.14
64 | SCCPPSRTFFPS | 0.734 ± 0.0078
65 | KKRRNRIKKSAK | 0.689 ± 0.14
66 | APTPPPPSPLAP | 0.73 ± 0.051
67 | RIINRATIIIKL | 0.564 ± 0.0065
68 | VWGTVCSMRREG | 0.63 ± 0.028
69 | LSRLPPTLPRTP | 0.699 ± 0.18
70 | RDMVSPLPLPLL | 0.613 ± 0.11
71 | GLLCSKTCCAGV | 0.6453 ± 0.0024
72 | PRAANRWASKAL | 0.6941 ± 0.0069
73 | IVRMLTCGVGWD | 0.581 ± 0.016
